Our source for the Kd values is PMC7319273 (2020).

As usually defined, the Kd is the constant that tells how readily two partners part at equilibrium.

The target of the assay is SARS-CoV-2 Spike protein extracellular domain (S-ECD), as used in ELISA and BLI (SARS-CoV-2, UniProt P0DTC2 14-1208). The assay is described as follows: BLI. In general terms: Biolayer interferometry detects binding as a change in optical thickness at a sensor tip.

B1: 4A8 (human monoclonal antibody) (antibody, V domains shown)
VH: EVQLVESGAEVKKPGASVKVSCKVSGYTLTELSMHWVRQAPGKGLEWMGGFDPEDGETMYAQKFQGRVTMTEDTSTDTAYMELSSLRSEDTAVYYCATSTAVAGTPDLFDYYYGMDVWGQGTTVTVSS
VL: EIVMTQSPLSSPVTLGQPASISCRSSQSLVHSDGNTYLSWLQQRPGQPPRLLIYKISNRFSGVPDRFSGSGAGTDFTLKISRVEAEDVGVYYCTQATQFPYTFGQGTKVDIK
In turn, B1 had a Kd of 996 pM.

B2: 2M-10B11 (human monoclonal antibody) (antibody, V domains shown)
VH: EVQLVESGGGLVQPGGSLRLSCAASGFTVSSNYMSWVRQAPGKGLEWVSVIYSGGSTYYADSVKGRFTISRDNSKNTLYLQMNSLRAEDTAVYYCARATWLRGVMDVWGQGTTVTVSS
VL: QSALTQPHSVSESPGKTVTISCTGSSGSIASNYVQWYQQRPGSAPTTVIYEDNQRPSGVPDRFSGSIDSSSNSASLTISGLKTEDEADYYCQSYDSSNHWVFGGGTKLTVL
Regarding B2, the dissociation constant (Kd) turned out to be 342 pM.
